Assay [1] concerns the target T1, PiM (wild type) human alpha-1 antitrypsin (AAT) protein, bacterially expressed (human, UniProt P01009 25-418).
T1 construct: The signal peptide is left out here; also called PiM (WT) AAT; wild-type AAT
As to the kind of experiment: in vitro neutrophil elastase binding assay, bacterially expressed AAT.

The target in assay [2] is T2, PiM+Bystander (D365G) human alpha-1 antitrypsin (AAT) protein, bacterially expressed (human, UniProt P01009 25-418).
T2 construct: Wild-type AAT altered to include D365G; also called D365G AAT protein; AAT protein with a D365G alteration
T2 sequence (P01009 25-418 D365G): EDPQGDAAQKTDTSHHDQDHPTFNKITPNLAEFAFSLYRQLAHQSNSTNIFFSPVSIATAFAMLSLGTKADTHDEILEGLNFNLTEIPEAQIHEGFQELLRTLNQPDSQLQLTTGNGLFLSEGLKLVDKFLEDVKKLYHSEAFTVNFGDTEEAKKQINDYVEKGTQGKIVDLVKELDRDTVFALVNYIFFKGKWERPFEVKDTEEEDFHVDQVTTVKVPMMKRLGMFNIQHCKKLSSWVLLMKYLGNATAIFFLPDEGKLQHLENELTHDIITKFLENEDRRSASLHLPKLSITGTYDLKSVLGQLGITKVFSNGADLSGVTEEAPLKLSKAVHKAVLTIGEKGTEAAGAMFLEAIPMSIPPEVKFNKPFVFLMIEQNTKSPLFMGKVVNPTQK
The assay is described as above.

We go through one molecule from patent publication US20260151508A1 (BEAM THERAPEUTICS, published 2026).

T1 sequence (P01009 25-418): as the sequence (P01009 25-418 D365G) above, with G341D counted along it

B1: human neutrophil elastase (enzyme, UniProt P08246 30-247, looked up)
chain: IVGGRRARPHAWPFMVSLQLRGGHFCGATLIAPNFVMSAAHCVANVNVRAVRVVLGAHNLSRREPTRQVFAVQRIFENGYDPVNLLNDIVILQLNGSATINANVQVAQLPAQGRRLGNGVQCLAMGWGLLGRNRGIASVLQELNVTVVTSLCRRSNVCTLVRGRQAGVCFGDSGSPLVCNGLIHGIASFVRGGCASGLYPDAFAPVAQFVNWIDSIIQ
notes: also called HNE
Consider B1, for which the binding result in assay [1] and in assay [2] was “binds” throughout.
